{"source": "paper PMC12906813", "about": "“The Transcription Factors NFYA1 and GBF3 Jointly Regulate CHS2 to Promote Tangeretin Accumulation and Cold Tolerance in Citrus”", "binders": {"B1": {"name": "CHS2-CCAAT probe (Probe 1) (dsDNA)", "DNA 1": "AAAGATCCATTTAATATGTTCCAATTACCGCATTACAAGTACTAAA", "DNA 2": "TTTAGTACTTGTAATGCGGTAATTGGAACATATTAAATGGATCTTT"}, "B2": {"name": "CHS2-mCCAAT probe (mProbe1) (dsDNA)", "DNA 1": "B1 DNA 1 with T20A, C21A, C22A, T25A", "DNA 2": "B1 DNA 2 with A22T, G25T, G26T, A27T"}, "B3": {"name": "CHS2-CACGTG probe (Probe 2) (dsDNA)", "DNA 1": "GCAGCCTAACACTATCCACGTGGTCAGCATCTGCCCGT", "DNA 2": "ACGGGCAGATGCTGACCACGTGGATAGTGTTAGGCTGC"}, "B4": {"name": "CHS2-mCACGTG probe (mProbe2) (dsDNA)", "DNA 1": "GCAGCCTAACACTATCTTTTTTGTCAGCATCTGCCCGT", "DNA 2": "ACGGGCAGATGCTGACAAAAAAGATAGTGTTAGGCTGC"}}, "key": {"CiNFYA1": {"biological_target": "CiNFYA1 (Citrus ichangensis (Ichang papeda), UniProt A0A067ER94 1-365)", "sequence (A0A067ER94 entry or part of it)": "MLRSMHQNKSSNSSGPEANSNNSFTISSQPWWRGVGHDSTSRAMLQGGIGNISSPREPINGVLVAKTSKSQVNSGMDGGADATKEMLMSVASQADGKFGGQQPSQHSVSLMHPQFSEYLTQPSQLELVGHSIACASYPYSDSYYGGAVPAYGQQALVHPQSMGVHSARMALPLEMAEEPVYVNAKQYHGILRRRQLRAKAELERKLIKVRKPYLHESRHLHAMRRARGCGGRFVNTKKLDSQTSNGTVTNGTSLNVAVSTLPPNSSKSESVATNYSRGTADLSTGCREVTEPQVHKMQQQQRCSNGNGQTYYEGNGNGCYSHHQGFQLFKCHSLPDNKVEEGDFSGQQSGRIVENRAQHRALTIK", "assay": "EMSA; Chemiluminescent EMSA Kit (Beyotime GS009); buffer, salt, pH and temperature not stated", "conditions": "protein: recombinant; tags: His (pHMGWA vector); label: biotin; blunt"}, "CiGBF3": {"biological_target": "T1, CiGBF3 (Citrus ichangensis (Ichang papeda), UniProt V4U7K8 1-421)", "T1 sequence": "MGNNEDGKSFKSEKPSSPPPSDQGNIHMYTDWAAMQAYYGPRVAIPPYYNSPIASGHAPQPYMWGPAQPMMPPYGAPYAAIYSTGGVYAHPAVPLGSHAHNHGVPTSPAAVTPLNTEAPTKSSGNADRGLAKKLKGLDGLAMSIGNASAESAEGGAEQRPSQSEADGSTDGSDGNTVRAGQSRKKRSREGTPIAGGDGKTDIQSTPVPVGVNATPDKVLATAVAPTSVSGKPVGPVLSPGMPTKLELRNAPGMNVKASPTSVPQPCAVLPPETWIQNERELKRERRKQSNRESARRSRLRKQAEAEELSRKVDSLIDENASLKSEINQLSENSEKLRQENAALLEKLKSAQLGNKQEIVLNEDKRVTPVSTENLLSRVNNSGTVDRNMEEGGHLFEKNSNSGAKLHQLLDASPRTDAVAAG", "assay": "EMSA; Chemiluminescent EMSA Kit (Beyotime GS009); buffer, salt, pH and temperature not stated", "conditions": "protein: recombinant; tags: His (pHMGWA vector); chain copies: 2; label: biotin; blunt"}}, "note": "Changes are numbered by the printed parent chain.", "data": [{"binder": "B1", "values": [{"measurement": "binding result", "setting": "CiNFYA1", "value": "binds"}]}, {"binder": "B2", "values": [{"measurement": "binding result", "setting": "CiNFYA1", "value": "no binding"}]}, {"binder": "B3", "values": [{"measurement": "binding result", "setting": "CiGBF3", "value": "binds"}]}, {"binder": "B4", "values": [{"measurement": "binding result", "setting": "CiGBF3", "value": "no binding"}]}]}
